Measured values reported in paper PMC11332147, “Repression of Acinetobacter baumannii DNA damage response requires DdrR-assisted binding of UmuDAb dimers to atypical SOS box”.
Changes are numbered by the printed parent chain.

Experiments:
UmuDAb A83Y = UmuDAb A83Y (Acinetobacter baumannii ATCC 17978 JH, UniProt A0A0D5YJU0 1-203, A83Y); experiment: EMSA; Hill 4.65; legend gives 69 nM; […] (10x = 100 mM Tris, 500 mM KCl, 10 mM DTT, […]; conditions: protein: recombinant; chain copies: 2; label: 5' IRDye700 on both strands; blunt
UmuDAb HTH2 = UmuDAb HTH2 (Acinetobacter baumannii ATCC 17978 JH, UniProt A0A0D5YJU0 1-203, K40P;N41P); experiment: EMSA; Hill 10.8; 78% bound; […] (10x = 100 mM Tris, 500 mM KCl, 10 mM DTT, […]; conditions: protein: recombinant; chain copies: 2; label: 5' IRDye700 on both strands; blunt
UmuDAb R201X = UmuDAb R201X (Acinetobacter baumannii ATCC 17978 JH, UniProt A0A0D5YJU0 1-200); experiment: EMSA; 60-70% bound above 1 uM; […] (10x = 100 mM Tris, 500 mM KCl, 10 mM DTT, […]; conditions: protein: recombinant; chain copies: 2; label: 5' IRDye700 on both strands; blunt
UmuDAb HTH1 = UmuDAb HTH1 (Acinetobacter baumannii ATCC 17978 JH, UniProt A0A0D5YJU0 1-203, E24K); experiment: EMSA; Hill 6.1; 94% bound; […] (10x = 100 mM Tris, 500 mM KCl, 10 mM DTT, […]; conditions: protein: recombinant; chain copies: 2; label: 5' IRDye700 on both strands; blunt
UmuDAb G124D = UmuDAb G124D (Acinetobacter baumannii ATCC 17978 JH, UniProt A0A0D5YJU0 1-203, G124D); experiment: EMSA; Bmax < 0.90; […] (10x = 100 mM Tris, 500 mM KCl, 10 mM DTT, […]; conditions: protein: recombinant; chain copies: 2; label: 5' IRDye700 on both strands; blunt
UmuDAb N100D = UmuDAb N100D (Acinetobacter baumannii ATCC 17978 JH, UniProt A0A0D5YJU0 1-203, N100D); experiment: as above; conditions: protein: recombinant; chain copies: 2; label: 5' IRDye700 on both strands; blunt
UmuDAb W192X = UmuDAb W192X (Acinetobacter baumannii ATCC 17978 JH, UniProt A0A0D5YJU0 1-191); experiment: EMSA; Hill 6.1; 60-70% bound above 1 uM; […] (10x = 100 mM Tris, 500 mM KCl, 10 mM DTT, […]; conditions: protein: recombinant; chain copies: 2; label: 5' IRDye700 on both strands; blunt
UmuDAb [1] = molecular target: T1, UmuDAb (Acinetobacter baumannii ATCC 17978 JH, UniProt A0A0D5YJU0 1-203); experiment: EMSA; Hill 4.9; EMSA: LI-COR Odyssey binding buffer (10x = 100 mM Tris, 500 mM KCl, 10 mM DTT, pH 7.5), 25 mM DTT, 1 ug/uL poly(dI-dC), 200 fmol probe per 20 uL, 20 min at room temperature; 5% TBE gel run at 4 C; conditions: protein: recombinant; chain copies: 2; label: 5' IRDye700 on both strands; blunt
T1 sequence: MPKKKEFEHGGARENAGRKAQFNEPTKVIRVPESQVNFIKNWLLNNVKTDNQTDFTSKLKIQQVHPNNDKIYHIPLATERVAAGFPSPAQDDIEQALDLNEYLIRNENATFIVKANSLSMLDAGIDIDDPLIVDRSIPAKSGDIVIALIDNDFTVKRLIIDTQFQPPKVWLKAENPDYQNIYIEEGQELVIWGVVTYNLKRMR

UmuDAb [2] = molecular target: T1, UmuDAb; experiment: competition; 100x competitor; […] (10x = 100 mM Tris, 500 mM KCl, 10 mM DTT, […]; conditions: protein: recombinant; chain copies: 2; blunt
UmuDAb [3] = molecular target: T1, UmuDAb; experiment: competition; 100x competitor; not different from WT; […] (10x = 100 mM Tris, 500 mM KCl, 10 mM DTT, […]; conditions: protein: recombinant; chain copies: 2; blunt
UmuDAb [4] = molecular target: T1, UmuDAb; experiment: EMSA; no higher MW second band; […] (10x = 100 mM Tris, 500 mM KCl, 10 mM DTT, […]; conditions: protein: recombinant; chain copies: 2; blunt
UmuDAb [5] = molecular target: T1, UmuDAb; experiment: competition; 100x competitor; also fails vs L2-labeled probe (Fig S3); […] (10x = 100 mM Tris, 500 mM KCl, 10 mM DTT, […]; conditions: protein: recombinant, chain copies: 2, blunt

B1: WT 37 bp UmuDAb operator probe (dsDNA)
DNA 1: TCGTCAACTTGAAAATGTAACTTTTTCAAGTTACATT
DNA 2: AATGTAACTTGAAAAAGTTACATTTTCAAGTTGACGA
- Kd (UmuDAb A83Y): 70 nM
- Kd (UmuDAb HTH2): 114 nM
- Kd (UmuDAb R201X): 353 nM
- Kd (UmuDAb HTH1): 99 nM
- Kd (UmuDAb G124D): 390 nM
- Kd (UmuDAb N100D): 306 nM
- Kd (UmuDAb W192X): 540 nM
- Kd (UmuDAb [1]): 38.9 nM

B2: C3 (dsDNA)
DNA 1: B1 DNA 1 with G17T, T18C, A20G, C21A
DNA 2: B1 DNA 2 with G17T, T18C, A20G, C21A
- binding result (UmuDAb [2]): no binding

B3: R2 (dsDNA)
DNA 1: B1 DNA 1 with T26C, C27T, A28G, A29G
DNA 2: B1 DNA 2 with T9C, T10C, G11A, A12G
- binding result (UmuDAb [3]): binds

B4: L2 labeled probe (dsDNA)
DNA 1: B1 DNA 1 with T9C, T10C, G11A, A12G
DNA 2: B1 DNA 2 with T26C, C27T, A28G, A29G
- binding signal (UmuDAb [4]): ~0.75 Kd ratio to WT probe

B5: R1 (dsDNA)
DNA 1: B1 DNA 1 with T10C, G11A
DNA 2: B1 DNA 2 with C27T, A28G
- binding result (UmuDAb [3]): binds

B6: L1 (dsDNA)
DNA 1: B1 DNA 1 with C27T, A28G
DNA 2: B1 DNA 2 with T10C, G11A
- binding result (UmuDAb [3]): binds

B7: L2C31-2 (dsDNA)
DNA 1: TCGTCAACCCAGAAATTCAACTTTTTCAAGTTACATT
DNA 2: AATGTAACTTGAAAAAGTTGAATTTCTGGGTTGACGA
- binding result (UmuDAb [5]): no binding

B8: L2C34-5 (dsDNA)
DNA 1: B7 DNA 1 with T17G, C18T, A20G, C21A
DNA 2: B7 DNA 2 with G17A, G20A, A21C
- binding result (UmuDAb [5]; 2 mismatches in core as printed): no binding

B9: LR3 (dsDNA)
DNA 1: TCGTCAACCCAGAAATGTAACTTTTCTGGGTTACATT
DNA 2: AATGTAACCCAGAAAAGTTACATTTCTGGGTTGACGA
- binding result (UmuDAb [2]): no binding
